# Key:
# Assay in all cases: native gel or EMSA; binding titrations of 80N0 nucleosomes with Chd1 in the presence of AMP-PNP and salmon sperm competitor DNA; observed (apparent) Kd; read from gels (Supplementary Figure S6)
# [1] = molecular target: 80N0 Widom 601 nucleosome with 2 bp DNA mismatches at both SHL2 sites (SHL+/-2, 20 bp from the dyad), Xenopus laevis histone octamer with H2B(S53C) (Xenopus laevis)
# [2] = molecular target: 80N0 Widom 601 nucleosome with 2 bp DNA mismatches at both SHL2.7 sites (SHL+/-2.7, 27 bp from the dyad), Xenopus laevis histone octamer with H2B(S53C) (Xenopus laevis)
# [3] = molecular target: 80N0 Widom 601 nucleosome with pairs of abasic sites at both SHL2 sites (SHL+/-2, 20 bp from the dyad), Xenopus laevis histone octamer with H2B(S53C) (Xenopus laevis)
# [4] = molecular target: 80N0 Widom 601 nucleosome with pairs of abasic sites at both SHL2.7 sites (SHL+/-2.7, 27 bp from the dyad), Xenopus laevis histone octamer with H2B(S53C) (Xenopus laevis)
# [5] = molecular target: 80N0 nucleosome, canonical Widom 601 DNA, Xenopus laevis histone octamer with H2B(S53C) (Xenopus laevis)
substance,measurement,setting,value
Chd1 chromatin remodeler (from UniProt P32657 1-1468) (enzyme),Kd,[1],450 nM
same,Kd,[2],22.2 nM
same,Kd,[3],10000 nM
same,Kd,[4],68 nM
same,Kd,[5],24 nM

# Reference: article PMC10602870
